In the supplement of paper PMC12764529:
± gives the half width of the 95% confidence interval.

Assay: folding stability dG unfold from trypsin proteolysis; higher = more stable
Procedure, shortened: (§1)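 K50 was inferred by Bayesian fitting of sequencing counts obtained after protease digestion of designed mini-proteins. Unfolding free energy was derived by comparison with a sequence-predicted unfolded-state K50 and a shared folded-state K50, for each protease or both combined. The mini-proteins were under 80 residues, had no cysteine, were carried in a PA-tagged cDNA display construct, and were kept only if AlphaFold2 dimer inter-PAE exceeded 15.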

Sequence	folding stability dG unfold [kcal/mol]
SAGGSAMTPEEVREKAEEIAETLAAEAREAGYEVEVKAKVEGLPEKYARVTVELNGARVEVLIPLDSAGGSA [r15_432_TrMRF]	0.453 ± 0.059
SWMLRIRNPDDGKTREIKLPNMPPTVQKDGWISITNPQFLNQLLDALPPDYKIDEVEFMPGGMHTMKVKPSA [r9_997_TrROS]	0.0269 ± 0.17
SMETVELRVRVRVFNPETGELVEEIEVTVTLPKGMTLEEALRRAREALREALERLLRPPEPVLDEDGRLVSA [r9_454_TrROS_Hall]	3.66 ± 0.12
SAGVKELAEEIADEFQKPGWQVEVEVDPGDGTITVQMRMPDYQYEIEIKITPENGKPQVDIKWRPPNDSAGG [r19_2_TrROS]	1.51 ± 0.16
SKEKYKKPIKFTVKIEEGPVTENGEKYIKIEITYPGGYTATIIITPKKIEIKSNVPNPEKVKELVKKLVKSA [r9_662_TrMRF]	1.62 ± 0.15
SAGGSAGGEGWRPLNVWIPFPDPKARLDEIVDMISKLFGWPIKIKITEVIPGDPDMIRVTIYVPSAGGSAGG [r6_211_TrROS]	3.41 ± 0.11
SAGGSAGGSAGGSEEILDVKVDEKENTLVITTKLPSGGTTTKEIKVENVPPFPESNVKVSAGGSAGGSAGGS [r4_372_JUSTAS]	-0.536 ± 0.072
SAGGSAGGGLDPVPIKRVTVLRNPETDEYVVLIENEDGLPYAFPFDSLEDAERFVRRLVEEGYLSAGGSAGG [r6_65_TrMRF]	4.76 ± 0.09
SAGGSAGGSAGGMGINVTVSEEVSVLPDPSVVRVTTTTKTPDGTTTVTEEVIPGPEELESAGGSAGGSAGGS [r10_1221_JUSTAS]	-0.15 ± 0.045
SAIKGMPLEELAKHIENEMRKMHPNVKIKVEIVDVPPDYLVIEVEITVRHPNPGGQQVEFPMTIVIDLDSAG [r14_187_TrROS]	1.81 ± 0.21
SAGGSAGGSMTIKITLPEEGEKVKITIFVNGEEKEIEIEPGEEITIELPENVKNAIIIIEKEPSAGGSAGGS [r12_729_TrROS_Hall]	2.49 ± 0.1

Assay: folding stability dG unfold (combined trypsin and chymotrypsin); higher = more stable
Procedure, shortened: as §1

Sequence	folding stability dG unfold [kcal/mol]
SAGEVAPEEIRKIAEEIAKKLGLKNVKVEVSRDEETGEITVKIEVDIPESKKEKKEELEKAIKEKLGLKSAG [r5_9_JUSTAS]	2.7 ± 0.17
SAGGSAGGSAMRPVSFTLVSTETAPNGVKVTKYVLTEPTGPAREYTSTNLLVEGSSLTDLSSAGGSAGGSAG [r3_261_JUSTAS]	0.202 ± 0.087
SMVLELPAKDLKLEVNEDGTLKLTIKLENGKKVTFTFPAGDKITKIEVLSPDKVKIIFEKKPLKDLKTFLSA [r9_501_TrMRF]	1.61 ± 0.19
SAGGSATAEELAEEIAREIAEAFPAEVVRVEVEEVDEDRVVFRMEVRVPLPDGSTVRAPFTVVVPASAGGSA [r15_276_TrMRF]	0.693 ± 0.1
SAGGSAGGEKEYIIKIKLEMPNGREMKHWFPFKTVEQIKDQLRKLPDPNYKIDDVEIMPADELKSAGGSAGG [r6_297_TrROS]	0.263 ± 0.12
SAGGSAGGSESKITILVLDEETQELYLIEVTLKYNPETGELETEMKIEKITLKPGEKLDLKDLSAGGSAGGS [r12_700_TrROS_Hall]	2.94 ± 0.2
SAGKKTITVPLKDLKKVLEELKKKYPNIKKVKIYVNGKEYEIKVGEKVKITEVIKNENGEEFVKIEIYKSAG [r5_130_TrROS_Hall]	3.31 ± 0.22
SAGGKKYKVKVVSVEYDKETKEVTVKVEFEDNKVVVEKKVKVKLPPVKIEFSEEDLKEGKVEIKIEFSAGGS [r16_809_TrROS_Hall]	2.27 ± 0.1
SAGGSAGGSMEIPANIPIEEFAALIKKKGNFEVKKVGPKTFVIVSKDNKKPLVVKFDAKPGLDSAGGSAGGS [r20_236_TrMRF]	0.183 ± 0.076
SAGGSAGGSAGGKIVKIEFDKETKEIKITLPNGKKITISKEDLKNMKIEIKVYPKKKKKKSAGGSAGGSAGG [r7_98_TrROS_Hall]	1.8 ± 0.35
SAGKARIVEYDEESGTITIEVDGKTIEIELAPGETAEITLEENEDGTLTLTITVNGKTLTLTIPLDDLKSAG [r5_500_TrROS_Hall]	3.15 ± 0.13
SAGGSAGGSATIYIIMPPDDPIPPNMPIRLPDGKPVRIDVEPVPLEEDGGPIFRIEVEPGATSAGGSAGGSA [r18_476_TrROS]	-0.03 ± 0.16
SAGGSAGGSAYWRIKIFYPNNGREVTIHVPGSADDILDEAKPQFGYPPDNIKKIKIEPMDNSAGGSAGGSAG [r3_79_TrROS]	0.432 ± 0.21
SAGGSAGGSAKELLKNIEKVEIIKNKKTNKYTIRIKNKNGKVYEFEFKSLEEALKKAGIKPSAGGSAGGSAG [r3_36_TrROS_Hall]	2.93 ± 0.073
SAGGSAGGSAGGKLTIVIEGMSEEEVKALAEALRKAGLEIEVTVVPVEVKEPELPEEEKSAGGSAGGSAGGS [r10_361_TrROS_Hall]	2.04 ± 0.12
GMSVTSYETDPNTGGPSISISSAPDPKTGLLSAPVTVYDPKTGQSKTINLTATSSEELAAKIAELLPASLLS [r1_156_JUSTAS]	0.97 ± 0.098
SAGGIYRVEIEIPGGNTIEFMIPGATEEMAKEIANELAQHFNPGDIKIEVYPIPPVKVDPEDGKWKWSAGGS [r8_167_TrROS]	1.13 ± 0.095
SAGGSAGGSATVKIVETKVGADGAVYTTALVTLPNGGVLIVKTKTYPSGESETSVTLTSGKEFSAGGSAGGS [r12_995_TrMRF]	2 ± 0.071
SLKPGEPRTVEMTMIIPITPDEIAKLFGLDIPPGTYIMVEMRMRVPPNADIEMDPDIHLYDPDDNKWFPISA [r9_349_TrROS]	2.86 ± 0.22
SPEKEIKVKYELPEPGSGPVKVEATFTINPKTGEVKMPVTLTRPGSSSQVNLPEELLKELKNKVLEELGKSA [r9_1136_JUSTAS]	0.442 ± 0.083
SAGPKAEIINKNGKKISFSAKNIKITSYPEKGILTGIIPKKNKKIEIKVDNNKITLIVYDGGKYKEFPISAG [r5_786_TrMRF]	2.21 ± 0.55
